Test results reported in patent US20190315842A1 (DUKE UNIVERSITY, published 2019).
Positions count from the first letter of the chain named. One block for each binder: values may come before it. Where no end group is shown, it is not given here. The star is where a group is joined. Biotin = O=C1N[C@H]2[C@H](CS[C@H]2CCCCC(=O)*)N1

Assays:
[1] = target: systemic lupus erythematosus autoantigen SSA; assay: AtheNA Multi-Lyte ANA, Ab at 16.7 ug/ml
[2] = target: T1, Sm (sphingomyelin); assay: AtheNA Multi-Lyte ANA, Ab at 16.7 ug/ml
T1 construct: in an ANA panel of nuclear antigens Sm is usually the Smith ribonucleoprotein antigen; Kept, but see recheck

[3] = target: ribonucleoprotein (RNP); assay: AtheNA Multi-Lyte ANA, Ab at 16.7 ug/ml
[4] = target: systemic lupus erythematosus autoantigen SSA; assay: AtheNA Multi-Lyte ANA, Ab at 8.35 ug/ml
[5] = target: T1, Sm (sphingomyelin); assay: AtheNA Multi-Lyte ANA, Ab at 8.35 ug/ml
[6] = target: ribonucleoprotein (RNP); assay: AtheNA Multi-Lyte ANA, Ab at 8.35 ug/ml
[7] = target: systemic lupus erythematosus autoantigen SSA; assay: AtheNA Multi-Lyte ANA, Ab at 2.088 ug/ml
[8] = target: T1, Sm (sphingomyelin); assay: AtheNA Multi-Lyte ANA, Ab at 2.088 ug/ml
[9] = target: ribonucleoprotein (RNP); assay: AtheNA Multi-Lyte ANA, Ab at 2.088 ug/ml
[10] = target: systemic lupus erythematosus autoantigen SSA; assay: AtheNA Multi-Lyte ANA, Ab at 4.175 ug/ml
[11] = target: T1, Sm (sphingomyelin); assay: AtheNA Multi-Lyte ANA, Ab at 4.175 ug/ml
[12] = target: ribonucleoprotein (RNP); assay: AtheNA Multi-Lyte ANA, Ab at 4.175 ug/ml
[13] = target: T2, 15-mer peptide GPPPPIDNGDITSFP (SEQ ID NO: 114) (human); assay: assay and antigen not given; Example 10, epitope mapping on the 15-mer peptide
T2 construct: Immobilized for SPR; also called parent peptide
T2 peptide: GPPPPIDNGDITSFP

[14] = target: T3, GPPPPIDNGDITSFP(GGGK-biotin); assay: ELISA: biotinylated peptide captured on immobilized Neutravidin, antibody at 0.5 µg/ml, anti-human IgG-HRP/ABTS, OD 405 nm
T3 construct: also called biotinylated 15-mer peptide; biotinylated 19-mer
T3 peptide: GPPPPIDNGDITSFPGGGK(Biotin)

[15] = target: T4, reduced form of Complement Factor H (CFH), treated with TCEP (human, UniProt P08603 19-1231, disulfides reduced with 10 mM TCEP); assay: immunoblot, SDS-PAGE under reducing conditions, antibody at 0.5 µg/ml, anti-human IgG-HRP, chemiluminescence; lane numbers as in Table 10
T4 construct: also called reduced CFH; reduced form of CFH

[16] = target: T5, Complement Factor H (CFH) protein, full-length (human, UniProt P08603 19-1231); assay: immunoblot, SDS-PAGE under non-reducing conditions, antibody at 0.5 µg/ml, anti-human IgG-HRP, chemiluminescence; lane numbers as in Table 10
T5 construct: also called full-length CFH; native CFH

[17] = target: systemic lupus erythematosus autoantigen SSA; assay: AtheNA Multi-Lyte ANA, Ab at 50 ug/ml;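 also: monoclonal antibodies probed against a nuclear autoantigen panel (SSA, SSB, Sm, RNP, Scl-70, Jo-1, dsDNA, CentB, histones), with anti-HIV 4E10 and palivizumab as control antibodies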
[18] = target: T6, systemic lupus erythematosus autoantigen SSB (UniProt P05455 1-408, limits assumed); assay: AtheNA Multi-Lyte ANA, Ab at 50 ug/ml;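 also: monoclonal antibodies probed against a nuclear autoantigen panel (SSA, SSB, Sm, RNP, Scl-70, Jo-1, dsDNA, CentB, histones), with anti-HIV 4E10 and palivizumab as control antibodies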
T6 sequence (looked up): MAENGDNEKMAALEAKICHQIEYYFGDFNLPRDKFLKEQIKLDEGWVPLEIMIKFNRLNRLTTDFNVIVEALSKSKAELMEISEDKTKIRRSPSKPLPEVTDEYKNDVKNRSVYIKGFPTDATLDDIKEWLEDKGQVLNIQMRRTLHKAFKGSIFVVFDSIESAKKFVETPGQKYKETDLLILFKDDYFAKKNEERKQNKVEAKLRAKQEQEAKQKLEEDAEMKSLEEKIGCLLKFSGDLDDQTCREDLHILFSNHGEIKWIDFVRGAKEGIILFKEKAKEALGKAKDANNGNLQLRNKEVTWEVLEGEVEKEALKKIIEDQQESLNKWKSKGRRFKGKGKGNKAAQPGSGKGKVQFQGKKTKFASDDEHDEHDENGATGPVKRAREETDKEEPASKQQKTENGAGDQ

[19] = target: T1, Sm (sphingomyelin); assay: AtheNA Multi-Lyte ANA, Ab at 50 ug/ml;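 also: monoclonal antibodies probed against a nuclear autoantigen panel (SSA, SSB, Sm, RNP, Scl-70, Jo-1, dsDNA, CentB, histones), with anti-HIV 4E10 and palivizumab as control antibodies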
[20] = target: ribonucleoprotein (RNP); assay: AtheNA Multi-Lyte ANA, Ab at 50 ug/ml;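 also: monoclonal antibodies probed against a nuclear autoantigen panel (SSA, SSB, Sm, RNP, Scl-70, Jo-1, dsDNA, CentB, histones), with anti-HIV 4E10 and palivizumab as control antibodies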
[21] = target: T7, sclerosis autoantigen (Scl-70) (UniProt P11387 2-765, limits assumed); assay: AtheNA Multi-Lyte ANA, Ab at 50 ug/ml
T7 sequence (looked up): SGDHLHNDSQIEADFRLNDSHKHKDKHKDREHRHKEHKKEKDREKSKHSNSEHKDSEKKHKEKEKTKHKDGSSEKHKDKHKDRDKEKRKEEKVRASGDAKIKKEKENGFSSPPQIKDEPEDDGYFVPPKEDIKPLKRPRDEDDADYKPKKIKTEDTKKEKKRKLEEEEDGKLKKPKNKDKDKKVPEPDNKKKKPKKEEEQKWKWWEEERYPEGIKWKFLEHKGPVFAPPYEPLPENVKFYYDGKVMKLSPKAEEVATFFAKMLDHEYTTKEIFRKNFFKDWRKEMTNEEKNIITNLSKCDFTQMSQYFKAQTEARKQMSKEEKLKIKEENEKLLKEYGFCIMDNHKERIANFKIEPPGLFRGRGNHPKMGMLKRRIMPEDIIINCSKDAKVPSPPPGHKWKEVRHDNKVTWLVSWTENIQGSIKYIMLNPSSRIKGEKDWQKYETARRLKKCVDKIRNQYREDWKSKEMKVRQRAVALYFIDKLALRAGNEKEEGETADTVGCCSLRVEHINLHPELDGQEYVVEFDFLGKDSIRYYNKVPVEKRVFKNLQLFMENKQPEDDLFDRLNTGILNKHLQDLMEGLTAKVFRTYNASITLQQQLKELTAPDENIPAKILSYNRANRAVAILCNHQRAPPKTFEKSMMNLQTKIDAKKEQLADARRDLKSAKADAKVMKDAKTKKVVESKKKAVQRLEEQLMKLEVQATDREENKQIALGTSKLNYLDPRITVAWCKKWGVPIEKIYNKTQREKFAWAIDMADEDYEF

[22] = target: T8, histidine-tRNA ligase (Jo-1) (UniProt P12081 2-509); assay: AtheNA Multi-Lyte ANA, Ab at 50 ug/ml
T8 sequence (looked up): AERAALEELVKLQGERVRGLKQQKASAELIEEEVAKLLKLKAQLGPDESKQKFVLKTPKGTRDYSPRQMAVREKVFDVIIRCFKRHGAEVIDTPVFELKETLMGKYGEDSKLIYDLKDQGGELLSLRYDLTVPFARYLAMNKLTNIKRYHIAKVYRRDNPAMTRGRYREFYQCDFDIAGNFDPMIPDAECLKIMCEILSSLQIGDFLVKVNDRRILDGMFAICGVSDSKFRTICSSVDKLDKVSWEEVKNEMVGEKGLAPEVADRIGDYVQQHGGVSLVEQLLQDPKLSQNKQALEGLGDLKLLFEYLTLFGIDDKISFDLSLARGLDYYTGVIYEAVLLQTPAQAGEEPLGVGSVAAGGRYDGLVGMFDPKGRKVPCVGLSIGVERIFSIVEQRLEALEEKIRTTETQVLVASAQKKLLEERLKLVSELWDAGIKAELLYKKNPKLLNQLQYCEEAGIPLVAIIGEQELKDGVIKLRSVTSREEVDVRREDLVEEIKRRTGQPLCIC

[23] = target: systemic lupus erythematosus autoantigen SSA; assay: AtheNA Multi-Lyte ANA, Ab at 12.5 ug/ml;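 also: monoclonal antibodies screened for binding to a panel of nuclear autoantigens (SSA, SSB, Sm, RNP, Scl-70, Jo-1, dsDNA, CentB, histones), with anti-HIV and anti-RSV antibodies as controls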
[24] = target: T6, systemic lupus erythematosus …; assay: AtheNA Multi-Lyte ANA, Ab at 12.5 ug/ml;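 also: monoclonal antibodies screened for binding to a panel of nuclear autoantigens (SSA, SSB, Sm, RNP, Scl-70, Jo-1, dsDNA, CentB, histones), with anti-HIV and anti-RSV antibodies as controls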
[25] = target: T1, Sm (sphingomyelin); assay: AtheNA Multi-Lyte ANA, Ab at 12.5 ug/ml;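 also: monoclonal antibodies screened for binding to a panel of nuclear autoantigens (SSA, SSB, Sm, RNP, Scl-70, Jo-1, dsDNA, CentB, histones), with anti-HIV and anti-RSV antibodies as controls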
[26] = target: ribonucleoprotein (RNP); assay: AtheNA Multi-Lyte ANA, Ab at 12.5 ug/ml;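 also: monoclonal antibodies screened for binding to a panel of nuclear autoantigens (SSA, SSB, Sm, RNP, Scl-70, Jo-1, dsDNA, CentB, histones), with anti-HIV and anti-RSV antibodies as controls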
[27] = target: T7, sclerosis autoantigen (Scl-70); assay: AtheNA Multi-Lyte ANA, Ab at 12.5 ug/ml
[28] = target: T8, histidine-tRNA ligase (Jo-1); assay: AtheNA Multi-Lyte ANA, Ab at 12.5 ug/ml
[29] = target: systemic lupus erythematosus autoantigen SSA; assay: AtheNA Multi-Lyte ANA, Ab at 6.25 ug/ml;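 also: monoclonal antibodies screened for reactivity against a panel of nuclear autoantigens, with an anti-HIV and an anti-RSV monoclonal antibody serving as controls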
[30] = target: T6, systemic lupus erythematosus …; assay: AtheNA Multi-Lyte ANA, Ab at 6.25 ug/ml;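 also: monoclonal antibodies screened for reactivity against a panel of nuclear autoantigens, with an anti-HIV and an anti-RSV monoclonal antibody serving as controls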
[31] = target: T1, Sm (sphingomyelin); assay: AtheNA Multi-Lyte ANA, Ab at 6.25 ug/ml;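 also: monoclonal antibodies screened for reactivity against a panel of nuclear autoantigens, with an anti-HIV and an anti-RSV monoclonal antibody serving as controls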
[32] = target: ribonucleoprotein (RNP); assay: AtheNA Multi-Lyte ANA, Ab at 6.25 ug/ml;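 also: monoclonal antibodies screened for reactivity against a panel of nuclear autoantigens, with an anti-HIV and an anti-RSV monoclonal antibody serving as controls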
[33] = target: T7, sclerosis autoantigen (Scl-70); assay: AtheNA Multi-Lyte ANA, Ab at 6.25 ug/ml
[34] = target: T8, histidine-tRNA ligase (Jo-1); assay: AtheNA Multi-Lyte ANA, Ab at 6.25 ug/ml
[35] = target: systemic lupus erythematosus autoantigen SSA; assay: AtheNA Multi-Lyte ANA, Ab at 28.3 ug/ml
[36] = target: T1, Sm (sphingomyelin); assay: AtheNA Multi-Lyte ANA, Ab at 28.3 ug/ml
[37] = target: ribonucleoprotein (RNP); assay: AtheNA Multi-Lyte ANA, Ab at 28.3 ug/ml
[38] = target: systemic lupus erythematosus autoantigen SSA; assay: AtheNA Multi-Lyte ANA, Ab at 3.538 ug/ml
[39] = target: T1, Sm (sphingomyelin); assay: AtheNA Multi-Lyte ANA, Ab at 3.538 ug/ml
[40] = target: ribonucleoprotein (RNP); assay: AtheNA Multi-Lyte ANA, Ab at 3.538 ug/ml
[41] = target: systemic lupus erythematosus autoantigen SSA; assay: AtheNA Multi-Lyte ANA, Ab at 7.075 ug/ml
[42] = target: T1, Sm (sphingomyelin); assay: AtheNA Multi-Lyte ANA, Ab at 7.075 ug/ml
[43] = target: ribonucleoprotein (RNP); assay: AtheNA Multi-Lyte ANA, Ab at 7.075 ug/ml

T4 sequence (P08603 19-1231 limits assumed): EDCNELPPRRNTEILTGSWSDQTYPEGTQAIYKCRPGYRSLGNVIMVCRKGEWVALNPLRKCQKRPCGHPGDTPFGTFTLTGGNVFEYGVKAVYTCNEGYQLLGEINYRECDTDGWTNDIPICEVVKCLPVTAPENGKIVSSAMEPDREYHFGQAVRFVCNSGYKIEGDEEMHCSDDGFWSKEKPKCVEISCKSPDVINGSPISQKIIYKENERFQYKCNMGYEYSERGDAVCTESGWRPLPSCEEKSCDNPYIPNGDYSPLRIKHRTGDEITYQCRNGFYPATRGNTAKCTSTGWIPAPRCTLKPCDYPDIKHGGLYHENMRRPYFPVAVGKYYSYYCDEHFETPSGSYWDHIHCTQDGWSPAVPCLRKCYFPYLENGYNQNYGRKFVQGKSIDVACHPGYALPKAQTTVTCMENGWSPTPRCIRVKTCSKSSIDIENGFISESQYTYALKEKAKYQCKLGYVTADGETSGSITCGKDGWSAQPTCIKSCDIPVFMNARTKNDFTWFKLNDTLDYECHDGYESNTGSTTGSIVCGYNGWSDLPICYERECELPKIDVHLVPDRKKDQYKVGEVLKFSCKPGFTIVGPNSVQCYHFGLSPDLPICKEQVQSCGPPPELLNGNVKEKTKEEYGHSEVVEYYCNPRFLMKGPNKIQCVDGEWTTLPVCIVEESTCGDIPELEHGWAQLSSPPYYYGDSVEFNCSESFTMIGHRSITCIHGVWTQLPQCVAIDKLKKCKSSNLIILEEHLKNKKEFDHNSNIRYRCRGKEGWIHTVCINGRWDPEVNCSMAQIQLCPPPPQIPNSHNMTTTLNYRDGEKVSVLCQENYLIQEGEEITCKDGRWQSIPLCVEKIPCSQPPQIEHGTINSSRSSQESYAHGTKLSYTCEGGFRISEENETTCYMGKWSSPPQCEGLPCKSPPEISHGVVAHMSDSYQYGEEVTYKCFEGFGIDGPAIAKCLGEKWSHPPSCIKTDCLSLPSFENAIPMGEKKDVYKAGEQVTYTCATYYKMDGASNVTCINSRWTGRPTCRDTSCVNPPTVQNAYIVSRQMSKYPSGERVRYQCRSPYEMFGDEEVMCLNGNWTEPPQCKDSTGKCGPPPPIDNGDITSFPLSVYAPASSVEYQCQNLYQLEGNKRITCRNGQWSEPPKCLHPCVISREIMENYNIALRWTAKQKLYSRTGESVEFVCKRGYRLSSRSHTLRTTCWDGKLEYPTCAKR
T5 sequence (P08603 19-1231 limits assumed): as above

AtheNA signal [1]: 144
AtheNA signal [2]: 92
AtheNA signal [3]: 40
AtheNA signal [4]: 146
AtheNA signal [5]: 77
AtheNA signal [6]: 38
AtheNA signal [7]: 119
AtheNA signal [8]: 45
AtheNA signal [9]: 29
AtheNA signal [10]: 140
AtheNA signal [11]: 63
AtheNA signal [12]: 36
EC50 [13]: 0.0122 µg/mL
binding result [14]: binds
binding result [15]: binds
binding result [16]: binds
B1: Ab7979 (antibody, IgG1, V domains shown)
VH: LVESGGGVVQPGKSLRLSCVASGFTFSTYGMHWVRQAPGKGLEWVAVMSFDGKTKYYADSVKGRFTISRDNPKNTLYLQMNSLRSEDTAVYYCAKGGAAAAVFDSWGQGILLTVSS
VL: MTQSPNSLAVSLGGRATINCKTSQSILYRSNNKNYLAWYQHKPGQPPKLLIYWASTRESRVPDRFSGSGSRTDFTLTISGLQAEDVAVYYCQQYYNPPWTFGQGTKVEIK
notes: Recombinant human antibody with IgG1 heavy chain backbone and kappa light chain constant; they begin at LVESGGG and MTQSP; also called Ab7979/239i; mAb 7979

AtheNA signal [17]: 6
AtheNA signal [18]: 8
AtheNA signal [19]: 2
AtheNA signal [20]: 4
AtheNA signal [21]: 3
AtheNA signal [22]: 5
AtheNA signal [23]: 4
AtheNA signal [24]: 8
AtheNA signal [25]: 4
AtheNA signal [26]: 3
AtheNA signal [27]: 3
AtheNA signal [28]: 4
AtheNA signal [29]: 2
AtheNA signal [30]: 7
AtheNA signal [31]: 2
AtheNA signal [32]: 2
AtheNA signal [33]: 1
AtheNA signal [34]: 2
EC50 [13]: 0.00782 µg/mL
binding result [14]: binds
binding result [15]: binds
binding result [16]: binds
B2: Ab7960/293i (antibody, IgG1, V domains shown)
VH: B1 VH with T25S, Q108P
VL: B1 VL with T22A, P43A, R60G, D63E, S79N
notes: Recombinant human antibody with IgG1 heavy chain backbone and kappa light chain constant; they begin at LVESGGG and MTQSP; also called mAb 7960; mAb7960

AtheNA signal [35]: 165
AtheNA signal [36]: 22
AtheNA signal [37]: 56
AtheNA signal [38]: 84
AtheNA signal [39]: 10
AtheNA signal [40]: 34
AtheNA signal [41]: 120
AtheNA signal [42]: 12
AtheNA signal [43]: 44
binding result [14]: binds
B3: Ab7970 (antibody, IgG1, V domains shown)
VH: LVESGGGVVQPGRSLRLSCAASGLTFSFYNFHWVRQTPGKGLEWVAGISYDATRTNYAGSVTGRFTISRDNSKKMLYLQMSSLGPQDTAVYHCARDRSDGQLHKVAFDSWGQGALVTVSS
VL: MTQSPDSLTLSLGERATINCRSSRTVLYRSNNKNYLAWYQHKPGQPPKLLMSWASTRETGVPDRFSGSGSGTHFTLTITSLQPEDVAVYYCQQYYSPPWTFGQGTKVEIR
notes: IgG1 heavy chain backbone and kappa constant; also called clone 18; pH007970/pK005991_6004
